We go through 10 molecules from patent US20220033515A1 (Genentech, published 2022).

Assay [1] addresses T1, hVEGF109 (human, UniProt P15692 214-315).
T1 construct: range 8-109; also called VEGF (8-109)
T1 sequence (looked up): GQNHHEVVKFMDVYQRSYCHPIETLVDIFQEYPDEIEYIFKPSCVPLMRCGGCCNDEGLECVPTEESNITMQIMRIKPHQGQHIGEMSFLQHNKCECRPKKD
Briefly: Biacore SPR.

For assay [2], the target named is T2, human vascular endothelial growth factor (hVEGF) (human, UniProt P15692-4 27-191).
T2 construct: also called hVEGF-A; human vascular endothelial growth factor A
Description: equilibrium KD; method and format (Fab or IgG) not given.

In assay [3] the target is T3, HER2 extracellular domain (Her2-ECD) (human, UniProt P04626 23-652).
T3 construct: extracellular domain; also called hHER2 extracellular domain (ECD)
Description: single-spot phage ELISA. On the technique in general: An ELISA detects its analyte on a solid surface through an enzyme-linked reagent.

The target of assay [4] is T3, HER2 extracellular domain (Her2-ECD). Description: ELISA on immobilised protein.
For assay [5], the target named is T4, hVEGF-D (human, UniProt O43915 93-201).
T4 sequence (looked up): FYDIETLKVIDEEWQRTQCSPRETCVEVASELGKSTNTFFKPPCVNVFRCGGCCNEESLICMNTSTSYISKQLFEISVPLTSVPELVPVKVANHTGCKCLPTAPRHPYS
Briefly: ELISA on immobilised protein.

The target in assay [6] is T5, epidermal growth factor receptor extracellular domain (hEGFR) (human, UniProt P00533 25-645).
T5 construct: extracellular domain
Briefly: ELISA on immobilised protein.

For assay [7], the target named is T6, bovine serum albumin (BSA) (bovine, UniProt P02769 25-607). Briefly: ELISA on immobilised protein.
In assay [8] the target is T7, human death receptor 5 (hDR5) (human, UniProt O14763 56-210).
T7 construct: also called DR5 long; hDR5-1f
Briefly: ELISA on immobilised protein.

Assay [9] addresses T8, hVEGF-C (human, UniProt P49767 103-227).
T8 sequence (looked up): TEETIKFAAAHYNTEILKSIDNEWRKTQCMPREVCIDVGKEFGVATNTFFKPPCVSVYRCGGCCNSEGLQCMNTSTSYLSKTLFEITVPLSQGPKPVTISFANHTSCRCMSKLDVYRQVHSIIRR
Briefly: ELISA on immobilised protein.

In assay [10] the target is T3, HER2 extracellular domain (Her2-ECD). Description: equilibrium KD; method and format (Fab or IgG) not given; HER2, second number of the cell.
For assay [11] the target is unchanged. Briefly: competitive phage ELISA.
Assay [12] shares this target. Briefly: Biacore SPR. A general note: Surface plasmon resonance follows binding to a sensor surface in real time, without labels.
In assay [13] the target is T4, hVEGF-D. Description: ELISA on immobilised target.
Assay [14] concerns the target T5, epidermal growth factor receptor …. Briefly: ELISA on immobilised target.
In assay [15] the target is T6, bovine serum albumin (BSA). Description: ELISA on immobilised target.
Assay [16] deals with T7, human death receptor 5 (hDR5). Briefly: ELISA on immobilised target.
Assay [17] addresses T8, hVEGF-C. Briefly: ELISA on immobilised target.
The target in assay [18] is T1, hVEGF109. Description: Biacore SPR, steady state analysis (* for kon and koff).
Assay [19] has as its target T3, HER2 extracellular domain (Her2-ECD). Briefly: competitive phage ELISA. The source holds these as a separate data set.
The target of assay [20] is T2, human vascular endothelial growth …. Description: competitive phage ELISA.
The target in assay [21] is T1, hVEGF109. Description: single-spot competitive phage ELISA.
Assay [22] addresses T3, HER2 extracellular domain (Her2-ECD). Description: single-spot competitive phage ELISA.
The target of a further assay is T9, murine VEGF (mVEGF) (murine, UniProt Q00731-2 27-190).
T9 sequence (looked up): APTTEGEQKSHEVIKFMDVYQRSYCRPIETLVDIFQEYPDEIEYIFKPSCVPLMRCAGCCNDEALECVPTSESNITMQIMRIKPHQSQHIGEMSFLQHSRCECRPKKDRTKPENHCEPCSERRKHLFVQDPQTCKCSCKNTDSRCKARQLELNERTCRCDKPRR
Description: ELISA on immobilised target.

Changes are numbered by the printed parent chain. Where “and” joins values, the source holds several entries; their conditions need not be identical. Identical values can stand only once. Like-named read-outs stand apart in the source and are kept apart here.

B1: 3-1 (antibody, V domains shown)
VH: not shown
VL: DIQMTQSPSSLSASVGDRVTITCRASQNVWDWVAWYQQKPGKAPKLLIYPASSLYSGVPSRFSGSGSGTDFTLTISSLQPEDFATYYCQQGWYIAPPTFGQGTKVEIKR
In general, Kd refers to the equilibrium constant for the complex coming apart. As for B1, the Kd (with hVEGF109 [1]; in [2]) was 15 nM each time. The binding result in assay [3] was “no binding”.

B2: 3-1 hIgG (antibody, V domains shown)
VH: not shown
VL: B1 VL
notes: not shown: rest of the human IgG heavy chain constant region
Regarding B2, in the assay with hVEGF109 [1], binding was put at a Kd of 12 nM. The binding result (in assay [4]; with hVEGF-D [5]; in assay [6]; in [7]; in assay [8]; with hVEGF-C [9]) was “no binding (tested: 100 or 500 nM (text))” each time.

B3: bH1 (antibody, V domains shown)
VH: not shown
VL: DIQMTQSPSSLSASVGDRVTITCRASQDIPRSISGYVAWYQQKPGKAPKLLIYWGSYLYSGVPSRFSGSGSGTDFTLTISSLQPEDFATYYCQQHYTTPPTFGQGTKVEIKR
notes: also called anti-hVEGF/Her2 bi-specific antibody
In general, IC50 refers to the point on the concentration scale where inhibition reaches its midpoint. Low values mean higher potency, high ones lower potency. In assay [10], B3 yielded an equilibrium dissociation constant (Kd) of 26 nM. In assay [11], this molecule had an IC50 of 10 nM.

B4: bH1 hIgG (antibody, V domains shown)
VH: not shown
VL: B3 VL
notes: also called bH1 IgG; not shown: rest of the human IgG heavy chain constant region
Turning to B4, the Kd in assay [12] is 9.8 nM. The binding result (in the assay with hVEGF-D [13]; in assay [14]; in assay [15]; in [16]; with hVEGF-C [17]) was “no binding (tested: 100 nM (text))” throughout.

B5: H4_D (antibody, V domains shown)
VH: not shown
VL: DIQMTQSPSSLSASVGDRVTITCRASQDIRSGSVAWYQQKPGKAPKLLIYWGSYLYSGVPSRFSGSGSGTDFTLTISSLQPEDFATYYCQQHYTTPPTFGQGTKVEIK
notes: also called H4_D hIgG
One may read the koff as the rate constant with which the complex falls apart. Read a low koff as slow dissociation. By kon is commonly meant the second-order rate constant of association. In the case of B5, the Kd with hVEGF109 [18] worked out at 2300 nM. In assay [12], the Kd came to 11 nM, the koff was 0.0012 s⁻¹ and the kon is 100000 M⁻¹ s⁻¹.

B6: H4_N (antibody, V domains shown)
VH: not shown
VL: B5 VL with D28N, G52A
notes: also called H4_N hIgG; H4_N Fab
B6 registered a Kd with hVEGF109 [18] of 550 nM. In addition, in assay [12], the Kd was 10 nM and 6 nM; the koff is 0.0013 s⁻¹; the kon is 140000 M⁻¹ s⁻¹ and 230000 M⁻¹ s⁻¹.

B7: 3-2 (scFv, V domains shown)
VH: not shown
VL: B5 VL with S31M, Y54V
B7: the results for the IC50 in assay [19] and in assay [20] were 1.56 nM and greater than 1000 nM, respectively.

B8: H5 (row of FIG.8a) (scFv, V domains shown)
VH: not shown
VL: B5 VL with S31G, W51G, H92Y
Consider B8, for which, in the assay with hVEGF109 [21], the “% signal, SSC +/- 50nM Vegf” value turned out to be 88.8% and the OD450 without competitor stood at 2.77. In assay [22], this molecule gave an OD450 without competitor of 2.87.

B9: bH3 (antibody, V domains shown)
VH: not shown
VL: DIQMTQSPSSLSASVGDRVTITCRASQDIGLGSVAWYQQKPGKAPKLLIYWASYLYSGVPSRFSGSGSGTDFTLTISSLQPEDFATYYCQQHYTTPPTFGQGTKVEIKR
On to B9, for which the Kd in assay [2] turned out to be 19000 nM; in assay [10], 8 nM. This molecule showed an IC50 in assay [11] of 2.6 nM. This molecule also gave an OD450 without competitor in assay [22] of 1.96.

B10: H3 hIgG (antibody, V domains shown)
VH: not shown
VL: B9 VL
notes: also called bH3 IgG; not shown: rest of the human IgG heavy chain constant region
On to B10, for which binding in assay [12] was characterised by a dissociation constant (Kd) of 20 nM. Moreover, the binding result in the assay with hVEGF-D [13] is “no binding (tested: 100 nM (text))”; in [14], “no binding (tested: 100 nM (text))”; in the assay with murine VEGF (mVEGF), “no binding (tested: 100 nM (text))”; in the assay with hVEGF-C [17], “no binding (tested: 100 nM (text))”; in assay [7], “no binding (tested: 100 or 500 nM (text))”; in [8], “no binding (tested: 100 or 500 nM (text))”.
